Measurements as given in patent publication US20220010008A1 (SHANGHAI PHARMAEXPLORER, published 2022).
Positions count from the first letter of the chain named. One block for each binder: values may come before it.

Legend:
[1] = target: T1, mouse IL-5 (mouse, UniProt P04401 21-133); assay: ELISA on mouse IL-5; antibody 0.0002 nM
T1 construct: Source and construct of the mouse IL-5 are not described; also called mouse IL-5 protein
T1 sequence (looked up): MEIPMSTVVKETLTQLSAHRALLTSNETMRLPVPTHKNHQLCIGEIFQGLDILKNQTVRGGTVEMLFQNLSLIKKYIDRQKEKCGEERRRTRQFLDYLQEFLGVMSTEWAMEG
Method: (§1) The titer of antibody reacting with human IL-5 protein and the cross reaction with mouse and monkey IL-5 protein were detected and analyzed by enzyme-linked immunosorbent assay (ELISA). Streptavidin was diluted with PBS to a final concentration of 1.0 μg/ml, and then added to a 96-well enzyme-labeled plate as 100 microliters per well. The plate was incubated at 4° C. overnight. On the second day, the plate was washed twice with washing solution (PBS+0.01% Tween20). The blocking solution (PBS+0.05% Tween20+2% BSA) was added for blocking at 37° C. for 1-2 hours. Then the blocking solution was discarded. The biotin-labeled human IL-5 was diluted with sample diluent (PBS+0.05% Tween20+0.2% BSA) to 0.5 μg/ml, and added to an enzyme-labeled plate at 50-100 microliters per well, and incubated at 37° C. for 1 hour. The plate was washed with plate washing solution (PBS+0.05% Tween 20) for 2-3 times. 50-100 microliters of antibody samples to be tested were added to each well, and incubated at 37° C. for 1 hour. Then the plate was washed with plate washing solution (PBS+0.05% Tween20) for 2-3 times. The horseradish peroxidase labeled secondary antibody against human or mouse IgG was added, and reacted at 37° C. for 1 hour. The plate was washed with plate washing solution (PBS+0.05% Tween 20) for 2-3 times. […] The value of O.D. 450 nm was read by ELISA plate reader (SpectraMax M5e, Molecular Device).

[2] = target: recombinant human IL-5 protein with His tag (human, UniProt P05113 20-134, limits assumed, biotin-labeled in the ELISA and in the receptor blocking assay (site not stated)); assay: cell-based or functional assay
[3] = target: recombinant human IL-5 protein (human, UniProt P05113 20-134, limits assumed); assay: cell-based or functional assay
[4] = target: T2, recombinant monkey IL-5 (monkey (cynomolgus macaques)); assay: ELISA, monkey IL-5, Ab 0.0002 nM
Method: as §1, with “times.” for “times. The horseradish peroxidase labeled secondary antibody against human or mouse IgG was added, and reacted at 37° C. for 1 hour. The plate was washed with plate washing solution (PBS+0.05% Tween 20) for 2-3 times.”
(§2) The titer of chimeric antibody reacting with human IL-5 protein and the cross reaction with mouse and monkey IL-5 protein were detected and analyzed by enzyme-linked immunosorbent assay (ELISA). […]

[5] = target: T2, recombinant monkey IL-5; assay: ELISA, monkey IL-5, Ab 0.0043 nM
Method: as §1, with “times.” for “times. The horseradish peroxidase labeled secondary antibody against human or mouse IgG was added, and reacted at 37° C. for 1 hour. The plate was washed with plate washing solution (PBS+0.05% Tween 20) for 2-3 times.”
as §2

[6] = target: T3, mouse IL-5 (mouse, UniProt P04401 21-133); assay: ELISA, mouse IL-5, Ab 0.0002 nM
T3 sequence (looked up): T1 sequence (looked up)
Method: as §1, with “times.” for “times. The horseradish peroxidase labeled secondary antibody against human or mouse IgG was added, and reacted at 37° C. for 1 hour. The plate was washed with plate washing solution (PBS+0.05% Tween 20) for 2-3 times.”
as §2

[7] = target: T3, mouse IL-5; assay: ELISA, mouse IL-5, Ab 0.0043 nM
Method: as §1, with “times.” for “times. The horseradish peroxidase labeled secondary antibody against human or mouse IgG was added, and reacted at 37° C. for 1 hour. The plate was washed with plate washing solution (PBS+0.05% Tween 20) for 2-3 times.”
as §2

B1: 69F2F3 (murine hybridoma antibody) (antibody, V domains shown)
VH: QVQLKQSGPGLVQPSQSLSITCTVSGFSLSNYGVHWVRQSPGKGLEWLGVIWSGGSTDYNAAFKSRLSITKDNSKSQVVFRMNSLQTDDTATYYCARNKDFLDYWGQGTKFTVSS
VL: DIVMTQSPSSLTVTAGEKVTMTCKSSQGLLNSGNQKNYLTWYQQKPGQPPKLLIYWASTRESGVPDRFTGSGSGTDFTLTISSVQAEDLAVYYCQNDYHFPLTFGAGTKLELK
notes: Mouse monoclonal antibody from hybridoma, purified on Protein G; also called lead antibody; antibody number 3
- OD450 nm [1]: 0.049

B2: 147D7H2 (as tested in Example 9, format not stated) (antibody, V domains shown)
VH: EVQLQQSGAELVKPGASVKLSCTASGFNIKDYFIHWVKQRTEQGLEWIGRIDTEDGETKYAPKFQGKATITIDTSSNTAYLYFSSLTSEDTAMYYCARYGNYVAMDYWGQGTSVTVSS
VL: QIVLTQSPALMSASPGEKVTMTCSASSSVSYMFWYQQKPSSSPKPWIYLTSKLASGVPARFSGSGSGTSYSLTISSVEAEDAATYYCQQWNSNPYTFGGGTKLEIK
- TF1 (IC50), TF1 proliferation induced by IL-5 [2]: ~1 pM

B6: 102A2E11B6 (as tested in Example 9, format not stated) (antibody, V domains shown)
VH: QVQLRQSGPGLVQPSQSLSITCTVSGFSLTSYGVHWVRQSPGKGLEWLGVIWSGGSTDYNAVFMSRLSISKDSSKSQVFFKMNSLQTDDTAIYYCARNRYVLDYWGQGTSVTVSS
VL: DIVMTQSPSSLSVSAGERVTMRCKSSQSLLTSGDQKNHLAWYQQKPGQPPKLLIYGASTRESGVPDRFTGSGSGTDFTLTITSVQAEDLAVYYCQNDHSFPLTFGAGTKLELK
- TF1 (IC50), TF1 proliferation induced by IL-5 [2]: ~1 pM

B7: 102A2E11B6 mouse-human chimeric antibody (antibody, V domains shown)
VH: B6 VH
VL: B6 VL
- OD450 nm [6]: 0.046 OD450 nm
- OD450 nm [7]: 0.069 OD450 nm

Continued, values first:

- TF1 (IC50, nM) [3]: 0.002 nM
B3: 147D7H2 (as tested in Example 9; murine or chimeric form not stated) (antibody, V domains shown)
VH: B2 VH
VL: B2 VL

- OD450 nm [4]: 0.093 OD450 nm
- OD450 nm [5]: 0.092 OD450 nm
B4: 147D7H2 mouse-human chimeric antibody (antibody, V domains shown)
VH: B2 VH
VL: B2 VL

- TF1 (IC50), TF1 proliferation induced by IL-5 [2]: ~1 pM
B5: 151G3B11 (as tested in Example 9, format not stated) (antibody, V domains shown)
VH: EVHLQQSGAELVKPGASVKLSCTASGFNIKDYYMHWVKQRTEQGLEWIGRIDPEDGETKYAPKFQGQATITADTSSNTANLQLSSLTSEDTAVYYCARYGNFPDYWGPGTTLTVSS
VL: B2 VL with F33Y, S40R, V77M
